Assay [1] has as its target T1, Human VEGF 165 (human, UniProt P15692-4 27-191).
T1 construct: Loaded on the BLI probe as the ligand; also called BLI ligand Human VEGF 165 (Avi tag, R&D Systems AVI-293-050); not shown: Avi tag
Description: BLI; KD after 4 days at 37 °C against KD at t = 0. (In general: BLI is a label-free optical method that tracks binding on a fibre tip over time.)

The target in assay [2] is T1, Human VEGF 165. Briefly: BLI; KD after 14 days at 37 °C against KD at t = 0.
The target in assay [3] is T1, Human VEGF 165. Briefly: BLI, VEGF 165 on probe; sample aged 14 days at 37 °C.
The target of assay [4] is T1, Human VEGF 165. Description: BLI, VEGF 165 on probe, t = 0 (repeats Table 15); limit of detection.
Assay [5] addresses T1, Human VEGF 165. Briefly: BLI, VEGF 165 on probe; sample aged 4 days at 37 °C; limit of detection.
Assay [6] deals with T1, Human VEGF 165. Description: BLI, VEGF 165 on probe, conjugate as analyte, t = 0; value is the limit of detection.
In assay [7] the target is T1, Human VEGF 165. Description: BLI, VEGF 165 on probe, t = 0 (repeats Table 15).
For assay [8], the target named is T1, Human VEGF 165. Description: BLI, VEGF 165 on probe, conjugate as analyte, t = 0.
Assay [9] concerns the target T1, Human VEGF 165. Description: BLI, VEGF 165 on probe; sample aged 4 days at 37 °C.
Assay [10] deals with T1, Human VEGF 165. Description: BLI, VEGF 165 on probe, conjugate as analyte, t = 0; t = 0, fresh conjugate, not aged.
Assay [11] has as its target T1, Human VEGF 165. Briefly: BLI; KD after 11 days at 37 °C against KD at t = 0.
In assay [12] the target is T1, Human VEGF 165. Description: BLI; KD after 32 days at 37 °C against KD at t = 0.
In assay [13] the target is T1, Human VEGF 165. Description: BLI, VEGF 165 on probe; sample aged 32 days at 37 °C.
For assay [14], the target named is T1, Human VEGF 165. Briefly: BLI, VEGF 165 on probe, t = 0 (repeats Table 15); limit of detection; t = 0, fresh conjugate, not aged.
The target in assay [15] is T1, Human VEGF 165. Briefly: BLI, VEGF 165 on probe; sample aged 11 days at 37 °C; limit of detection; aged 11 days at 37 C (sample 1).
Assay [16] deals with T1, Human VEGF 165. Briefly: BLI; KD after 28 days at 37 °C against KD at t = 0.
Assay [17] deals with T1, Human VEGF 165. Description: BLI, VEGF 165 on probe; sample aged 28 days at 37 °C.
In assay [18] the target is T1, Human VEGF 165. Description: BLI, VEGF 165 on probe; sample aged 14 days at 37 °C; limit of detection.

T1 sequence (P15692 other isoform, or with tags, fused parts or gaps limits assumed): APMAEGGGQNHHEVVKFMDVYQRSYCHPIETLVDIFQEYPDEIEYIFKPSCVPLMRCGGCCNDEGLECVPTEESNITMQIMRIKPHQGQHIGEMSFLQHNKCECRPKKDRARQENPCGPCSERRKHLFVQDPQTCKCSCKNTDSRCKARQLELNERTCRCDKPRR

B1: Conjugate 20 (anti-VEGF VHH SEQ ID NO: 91 on hyaluronic acid, intermediate 2-8) (VHH)
VHH: DVQLVESGGGLVQPGGSLRLSCAASGRTFSSYSMGWFRQAPGKEREFVVAISKGGYKYDAVSLEGRFTISRDNAKNTVYLQINSLRPEDTAVYYCASSRAYGSSRLRLADTYEYWGQGTLVTVSS
modifications: peptide bound through the organic linker MP2H to hyaluronic acid (830 kDa); site of attachment not stated
notes: Multivalent peptide-hyaluronic acid conjugate (MVP); peptide valency 91; Method 2 intermediate; also called BI VHH anti-VEGF MVP
In the case of B1, the “Change in KD to t = 0” value with Human VEGF 165 [1] worked out at 1 fold; with Human VEGF 165 [2] it was 1440 fold. The Kd (as a rule, a measure of binding affinity in units of concentration) with Human VEGF 165 [3] is 1.44 nM; in the assay with Human VEGF 165 [4] it was less than 1 pM; in the assay with Human VEGF 165 [5] it was less than 1 pM; with Human VEGF 165 [6], less than 1 pM.

B2: Conjugate 17 (anti-VEGF VHH SEQ ID NO: 91 on hyaluronic acid, intermediate 1-7) (VHH)
VHH: B1 VHH
modifications: peptide bound through the organic linker MP2H to hyaluronic acid (830 kDa); site of attachment not stated
notes: Multivalent peptide-hyaluronic acid conjugate (MVP); peptide valency 90; Method 1 intermediate; also called BI VHH anti-VEGF MVP
On to B2, for which the Kd was found to be 4 pM in the assay with Human VEGF 165 [7], 4 pM with Human VEGF 165 [8], 0.713 nM with Human VEGF 165 [9] and 0.911 nM with Human VEGF 165 [3]. The “Change in KD to t = 0” value worked out at 178 fold in the assay with Human VEGF 165 [1] and 228 fold with Human VEGF 165 [2].

B3: Conjugate 19 (anti-VEGF VHH SEQ ID NO: 91 on hyaluronic acid, intermediate 2-6) (VHH)
VHH: B1 VHH
modifications: peptide bound through the organic linker MP2H to hyaluronic acid (830 kDa); site of attachment not stated
notes: Multivalent peptide-hyaluronic acid conjugate (MVP); peptide valency 108; Method 2 intermediate; also called BI VHH anti-VEGF MVP
For the molecule B3, in the assay with Human VEGF 165 [1], the “Change in KD to t = 0” value stood at 185 fold. The Kd was 0.185 nM in the assay with Human VEGF 165 [9], less than 1 pM with Human VEGF 165 [4] and less than 1 pM with Human VEGF 165 [6].

B4: Conjugate 21 (anti-VEGF VHH SEQ ID NO: 91 with aH linker SEQ ID NO: 21 on hyaluronic acid, intermediate 1-9) (VHH)
VHH: B1 VHH
modifications: C-terminal Cys of the peptide linker bound by its thiol to the maleimide of the organic linker MP2H on hyaluronic acid (830 kDa)
notes: Multivalent peptide-hyaluronic acid conjugate (MVP); peptide valency 51; Method 1 intermediate; also called BI VHH anti-VEGF MVP
Regarding B4, the “Change in KD to t = 0” value came to 3300 fold in the assay with Human VEGF 165 [1] and 1140 fold with Human VEGF 165 [2]. For the same molecule, the Kd is 3.3 nM with Human VEGF 165 [9], 1.14 nM with Human VEGF 165 [3], less than 1 pM in the assay with Human VEGF 165 [4] and less than 1 pM in the assay with Human VEGF 165 [6].

B5: Conjugate 18 (anti-VEGF VHH SEQ ID NO: 91 on hyaluronic acid, intermediate 1-7) (VHH)
VHH: B1 VHH
modifications: peptide bound through the organic linker MP2H to hyaluronic acid (830 kDa); site of attachment not stated
notes: Multivalent peptide-hyaluronic acid conjugate (MVP); peptide valency 88; Method 1 intermediate; also called BI VHH anti-VEGF MVP
B5: the entries for the “Change in KD to t = 0” value with Human VEGF 165 [1] and with Human VEGF 165 [2] were 1 fold and 3670 fold, respectively. Moreover, the Kd with Human VEGF 165 [3] was 3.67 nM; with Human VEGF 165 [4], less than 1 pM; with Human VEGF 165 [5] it was less than 1 pM; with Human VEGF 165 [6] it was less than 1 pM.

B6: Conjugate 13 (anti-VEGF VHH SEQ ID NO: 91 with Rigid linker SEQ ID NO: 31 on hyaluronic acid, intermediate 5-8) (VHH)
VHH: B1 VHH
modifications: C-terminal Cys of the peptide linker bound by its thiol to the maleimide of the organic linker MP2H on hyaluronic acid (830 kDa)
notes: Multivalent peptide-hyaluronic acid conjugate (MVP); peptide valency 72; Method 5 intermediate; also called BI VHH anti-VEGF MVP
In turn, B6 displayed a dissociation constant Kd with Human VEGF 165 [8] of 11 pM.

B7: Conjugate 14 (anti-VEGF VHH SEQ ID NO: 91 with Rigid linker SEQ ID NO: 31 on hyaluronic acid, intermediate 5-3) (VHH)
VHH: B1 VHH
modifications: C-terminal Cys of the peptide linker bound by its thiol to the maleimide of the organic linker MP2H on hyaluronic acid (830 kDa)
notes: Multivalent peptide-hyaluronic acid conjugate (MVP); peptide valency 68; Method 5 intermediate; also called BI VHH anti-VEGF MVP
As to B7, the affinity in the assay with Human VEGF 165 [10], expressed as Kd, was 0.203 nM.

B8: Conjugate 1 (anti-VEGF DARPin SEQ ID NO: 92 on hyaluronic acid, intermediate 5-4) (designed binder)
chain: GSDLDKKLLEAARAGQDDEVRILMANGADVNARDSTGWTPLHLAAPWGHPEIVEVLLKNGADVNAADFQGWTPLHLAAAVGHLEIVEVLLKYGADVNAQDKFGKTAFDISIDNGNEDLAEILQKAAGGGSGGGS
modifications: peptide bound through the organic linker MP2H to hyaluronic acid (830 kDa); site of attachment not stated
notes: Multivalent peptide-hyaluronic acid conjugate (MVP); peptide valency 68; Method 5 intermediate (high EDC, N-acylurea adducts); also called DARPin MVP (Method 5)
For the molecule B8, the “Change in KD to t = 0” value in the assay with Human VEGF 165 [11] was found to be 1 fold; in the assay with Human VEGF 165 [12] it was 75 fold. Also, the Kd is 0.075 nM with Human VEGF 165 [13], less than 1 pM in the assay with Human VEGF 165 [6], less than 1 pM with Human VEGF 165 [14] and less than 1 pM with Human VEGF 165 [15].

B9: Conjugate 2 (anti-VEGF DARPin SEQ ID NO: 92 on hyaluronic acid, intermediate 1-7) (designed binder)
chain: B8 chain
modifications: peptide bound through the organic linker MP2H to hyaluronic acid (830 kDa); site of attachment not stated
notes: Multivalent peptide-hyaluronic acid conjugate (MVP); peptide valency 117; Method 1 intermediate; also called DARPin MVP (Method 1)
Take B9: the results for the “Change in KD to t = 0” value in the assay with Human VEGF 165 [2] and in the assay with Human VEGF 165 [16] were 1 fold and 17 fold, respectively. Further, the Kd was 0.017 nM in the assay with Human VEGF 165 [17], less than 1 pM with Human VEGF 165 [4], less than 1 pM with Human VEGF 165 [18] and less than 1 pM with Human VEGF 165 [6].

B10: Conjugate 3 (anti-VEGF DARPin SEQ ID NO: 92 on hyaluronic acid, intermediate 5-5) (designed binder)
chain: B8 chain
modifications: peptide bound through the organic linker MP2H to hyaluronic acid (830 kDa); site of attachment not stated
notes: Multivalent peptide-hyaluronic acid conjugate (MVP); peptide valency 67; Method 5 intermediate; also called DARPin MVP (Method 5)
B10: the Kd with Human VEGF 165 [6] is less than 1 pM.
